In paper PMC7435863, “Single Residue Substitution at N-Terminal Affects Temperature Stability and Activity of L2 Lipase” (Molecules, 2020):

Substrate: CCCCCCCCCC(=O)Oc1ccc([N+](=O)[O-])cc1
Assay: pNP ester hydrolysis, Lineweaver-Burk
Assay type: biochemical, Bacillus sp. L2
Conditions: 70 °C (optimum temperature), 0.6-5.0 mM substrate
From the text: pNP ester hydrolysis, Lineweaver-Burk on wt-L2 lipase

B1: wt-L2 lipase (Bacillus sp. L2) (protein)
chain: ASLRANDAPIVLLHGFTGWGREEMFGFKYWGGVRGDIEQWLNDNGYRTYTLAVGPLSSNWDRACEAYAQLVGGTVDYGAAHAAKHGHARFGRTYPGLLPELKRGGRIHIIAHSQGGQTARMLVSLLENGSQEEREYAKAHNVSLSPLFEGGHHFVLSVTTIATPHDGTTLVNMVDFTDRFFDLQKAVLEAAAVASNVPYTSQVYDFKLDQWGLRRQPGESFDHYFERLKRSPVWTSTDTARYDLSVSGAEKLNQWVQASPNTYYLSFSTERTYRGALTGNHYPELGMNAFSAVVCAPFLGSYRNPTLGIDDRWLENDGIVNTVSMNGPKRGSSDRIVPYDGTLKKGVWNDMGTYNVDHLEIIGVDPNPSFDIRAFYLRLAEQLASLLP
notes: recombinant from pET32(B)+ in E. coli BL21(DE3), Ni Sepharose purified
- Km: 1080 µM
- kcat: 175 s⁻¹
- kcat/Km: 162000 M⁻¹ s⁻¹

B2: wt-L2 lipase (Bacillus sp. L2; A36P) (protein)
chain: ASLRANDPPIVLLHGFTGWGREEMFGFKYWGGVRGDIEQWLNDNGYRTYTLAVGPLSSNWDRACEAYAQLVGGTVDYGAAHAAKHGHARFGRTYPGLLPELKRGGRIHIIAHSQGGQTARMLVSLLENGSQEEREYAKAHNVSLSPLFEGGHHFVLSVTTIATPHDGTTLVNMVDFTDRFFDLQKAVLEAAAVASNVPYTSQVYDFKLDQWGLRRQPGESFDHYFERLKRSPVWTSTDTARYDLSVSGAEKLNQWVQASPNTYYLSFSTERTYRGALTGNHYPELGMNAFSAVVCAPFLGSYRNPTLGIDDRWLENDGIVNTVSMNGPKRGSSDRIVPYDGTLKKGVWNDMGTYNVDHLEIIGVDPNPSFDIRAFYLRLAEQLASLLP
notes: as for B1
- Km: 1340 µM
- Vmax: 76300 µM/min
- kcat: 127 s⁻¹
- kcat/Km: 94900 M⁻¹ s⁻¹

B3: wt-L2 lipase (Bacillus sp. L2; A36V) (protein)
chain: ASLRANDVPIVLLHGFTGWGREEMFGFKYWGGVRGDIEQWLNDNGYRTYTLAVGPLSSNWDRACEAYAQLVGGTVDYGAAHAAKHGHARFGRTYPGLLPELKRGGRIHIIAHSQGGQTARMLVSLLENGSQEEREYAKAHNVSLSPLFEGGHHFVLSVTTIATPHDGTTLVNMVDFTDRFFDLQKAVLEAAAVASNVPYTSQVYDFKLDQWGLRRQPGESFDHYFERLKRSPVWTSTDTARYDLSVSGAEKLNQWVQASPNTYYLSFSTERTYRGALTGNHYPELGMNAFSAVVCAPFLGSYRNPTLGIDDRWLENDGIVNTVSMNGPKRGSSDRIVPYDGTLKKGVWNDMGTYNVDHLEIIGVDPNPSFDIRAFYLRLAEQLASLLP
notes: as for B1
- Km: 520 µM
- Vmax: 81300 µM/min
- kcat: 136 s⁻¹
- kcat/Km: 207000 M⁻¹ s⁻¹

B4: wt-L2 lipase (Bacillus sp. L2; A36E) (protein)
chain: ASLRANDEPIVLLHGFTGWGREEMFGFKYWGGVRGDIEQWLNDNGYRTYTLAVGPLSSNWDRACEAYAQLVGGTVDYGAAHAAKHGHARFGRTYPGLLPELKRGGRIHIIAHSQGGQTARMLVSLLENGSQEEREYAKAHNVSLSPLFEGGHHFVLSVTTIATPHDGTTLVNMVDFTDRFFDLQKAVLEAAAVASNVPYTSQVYDFKLDQWGLRRQPGESFDHYFERLKRSPVWTSTDTARYDLSVSGAEKLNQWVQASPNTYYLSFSTERTYRGALTGNHYPELGMNAFSAVVCAPFLGSYRNPTLGIDDRWLENDGIVNTVSMNGPKRGSSDRIVPYDGTLKKGVWNDMGTYNVDHLEIIGVDPNPSFDIRAFYLRLAEQLASLLP
notes: as for B1
- Km: 4380 µM
- Vmax: 71900 µM/min
- kcat: 120 s⁻¹
- kcat/Km: 27200 M⁻¹ s⁻¹
